Molecular target: T1, calcium-signal modulating cyclophilin ligand (CAML), human, full length (human, UniProt P49069 1-296)
T1 construct: mature; In the co-immunoprecipitation it was expressed from pBJ5 in 293T cells
T1 sequence (looked up): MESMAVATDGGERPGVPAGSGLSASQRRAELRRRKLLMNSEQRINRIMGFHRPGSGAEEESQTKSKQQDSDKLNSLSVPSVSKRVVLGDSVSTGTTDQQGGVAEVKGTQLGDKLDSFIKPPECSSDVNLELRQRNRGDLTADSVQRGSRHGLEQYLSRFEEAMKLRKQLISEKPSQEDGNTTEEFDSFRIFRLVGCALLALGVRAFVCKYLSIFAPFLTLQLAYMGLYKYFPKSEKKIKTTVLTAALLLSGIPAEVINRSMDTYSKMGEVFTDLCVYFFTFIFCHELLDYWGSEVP
Experiment: yeast two-hybrid screen of a human B-lymphocyte cDNA library with full-length CAML as bait

B1: Transmembrane Activator and CAML-Interactor protein TACI-1 (human, full length, 293 amino acids) (receptor)
chain: MSGLGRSRRGGRSRVDQEERFPQGLWTGVAMRSCPEEQYWDPLLGTCMSCKTICNHQSQRTCAAFCRSLSCRKEQGKFYDHLLRDCISCASICGQHPKQCAYFCENKLRSPVNLPPELRRQRSGEVENNSDNSGRYQGLEHRGSEASPALPGLKLSADQVALVYSTLGLCLCAVLCCFLVAVACFLKKRGDPCSCQPRSRPRQSPAKSSQDHAMEAGSPVSTSPEPVETCSFCFPECRAPTQESAVTPGTPDPTCAGRWGCHTRTTVLQPCPHIPDSGLGIVCVPAQEGGPGA
notes: Untagged full-length protein expressed from pBJ5 on TAg Jurkat T cells for flow cytometry and reporter assays; In the yeast two-hybrid tests it was fused to a GAL4 domain (pACT or pAS1); also called TACI protein; TCB
binding result: binds

Reference: patent US20030082173A1 (ST JUDE CHILDREN S RESEARCH HOSPITAL, published 2003)
